Target: T1, ubiquitin (single molecule, mono-ubiquitin) (Homo sapiens (Human), UniProt P0CG47 1-76)
T1 construct: also called one ubiquitin
Assay: isothermal titration calorimetry, one OtUBD to one ubiquitin

B1: OtUBD (ubiquitin binding domain of an effector protein of Orientia tsutsugamushi), native unmodified domain (other)
chain: VNFLSENRMITSAAAALADTLLKNNNRITEGVLVDRIFDNKILSVQEKQQLLNNLLDNHIKENKSLTKESLTRMLASTHFVQQQANVLLNEKFNK
notes: also called OtUDB
B1 gave a Kd of 5.3 nM.

Source: US20210102950A1 (YALE UNIVERSITY, published 2021)
